The subject of data set [1] is MS2 coat protein. Nature of the data set: apparent KD of MS2 coat protein, switch OFF state (with FMN for OFF switches, without FMN for ON switches); designed switch direction (-1 OFF switch, 1 ON switch): -1; higher = weaker reporter binding. The following applies: FMN input: 0 or 200 uM; Eterna round: R93 (includes R88 designs). In short, it runs like this: (§1)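 Each design's apparent KD comes from the median of binding-curve fits to its normalised clusters. Those clusters carried RNA switches transcribed on-chip from Illumina sequencing clusters. SNAP-549-labelled MS2 coat protein was titrated onto them in twofold steps (0.7 or 1.5 nM to 3 µM; per step 0.8–1.5 h down to 10–20 min). Conditions were 100 mM Tris-HCl pH 7.5, 80 mM KCl, 4 mM MgCl2, without or with constant ligand.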

For data set [2], the system named is MS2 coat protein. Briefly: apparent KD of MS2 coat protein, switch ON state; designed switch direction (-1 OFF switch, 1 ON switch): -1; higher = weaker reporter binding. The settings on record: FMN input: 0 or 200 uM; Eterna round: R93 (includes R88 designs). The essentials: as §1
In data set [3] the test system is MS2 coat protein. Nature of the data set: apparent KD of MS2 coat protein; designed switch direction (-1 OFF switch, 1 ON switch): 1; higher = weaker reporter binding. The essentials: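 RNA switches sharing common flanks were transcribed by stalled E. coli RNA polymerase on Illumina chips. A doubling series of SNAP-549-labelled MS2 coat protein, from 0.7 or 1.5 nM to 3 µM, was applied in Tris-HCl pH 7.5 buffer with KCl, MgCl2, BSA, DTT, tRNA and Tween-20. Each step lasted 0.8–1.5 h at the bottom of the series and 10–20 min at the top. Normalised cluster fluorescence was curve-fitted, giving apparent KD as the per-design median over clusters.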

[4] abbreviates: input ligand: microRNA oligo, concentration not stated.
[5] abbreviates: Eterna round: R95, input ligand: microRNA oligo, concentration not stated.

In the case of “AAAAAAAAAGGAUAUACAGGAGGUAAGGUCGGACAAAAAAGACAUGAGGAUCACCCAUGUAGAAGGUUUAAAAA [Excls2-X]”, the “apparent KD of MS2 coat protein” value stood at 0.0351 µM in the data set with MS2 coat protein [1] and 0.0394 µM in the data set on MS2 coat protein [2].
In the case of “AAAAAACAAGGAUAUACAAAAAUAAAAAGAAUAAAGUGAAAACAUGAGGAUCACCCAUGUAGAAGGUGUAAAAA [Default title]”, the “apparent KD of MS2 coat protein” value in the data set with MS2 coat protein [1] came out at 0.0448 µM; in the data set on MS2 coat protein [2], 0.067 µM.
The matching figures for “AAAAAACAUGAGGAUCACCCAUGUAAGGAUAUGCUAAAAAACACGGAAAACGUGAAUAGCAGAAGGUACAAAAG [Mat - Exclusion 1 - Eli mod - D84]”: 0.0677 µM and 0.0159 µM.
For the sequence “AAAAAACAUGAGGAUCACCCAUGUAAGGAUAUGCUCGUAAGUGCGAAAGCACAAAUGAGCAGAAGGUACAAAAA [66%, Wbt, 44]”, the “apparent KD of MS2 coat protein” value in the data set on MS2 coat protein [1] was 0.031 µM; in the data set on MS2 coat protein [2], 0.0192 µM.
As to “AAAAAACAUGAGGAUCACCCAUGUAAGGAUAUGCUCGUGCGAAAGCACAAAAAAAAGAGCAGAAGGUACAAAAA [66%, Wbt, 38]”, the results for the “apparent KD of MS2 coat protein” value in the data set on MS2 coat protein [1] and in the data set on MS2 coat protein [2] were 0.0323 µM and 0.0198 µM, respectively.
Taken in the same sequence, the figures for “AAAAAACAUGAGGAUCACCCAUGUCAGGAUAUCCGGUUCAAAAAAAAAAAAAGGCGUUGGAGAAGGGACAUUCC [Chica Displaced 10 - Jieux - Exclusion 1]” were 0.0364 µM and 0.028 µM.
On to “AAAAAACAUGAGGAUCACCCAUGUCAGGAUAUCGUUGAAAAAAAAAAAAAAAAAAAAGCGAGAAGGGACACGAA [exclusion1-cac3]”, for which the “apparent KD of MS2 coat protein” value with MS2 coat protein [1] came to 0.0418 µM; with MS2 coat protein [2], 0.0607 µM.
Taken in the same sequence, the figures for “AAAAAACAUGAGGAUCACCCAUGUCAGGAUAUCUGUAUUCAAUCCUCGGAUUGAAUACAGAGAAGGGAUAUGAA [Ex1: 604]” were 0.0622 µM and 0.0422 µM.
“AAAAAACAUGAGGAUCACCCAUGUGAGGAUAUCGAAAAAAAAAUAAAAAUAAAACAUACGAGAAGGCACACCAA [Amethyst 59]”: the results for the “apparent KD of MS2 coat protein” value with MS2 coat protein [1] and in the data set on MS2 coat protein [2] were 0.0357 µM and 0.0305 µM, respectively.
Regarding “AAAAAACAUGAGGAUCACCCAUGUGAGGAUAUCGGUAGUGAGGCUAUAGUGUCAGUAAUGAGAAGGCACAUAAA [Brourd 613 Mod 11 - Jieux - Exclusion 1]”, the “apparent KD of MS2 coat protein” value in the data set on MS2 coat protein [1] is 0.0297 µM; in the data set with MS2 coat protein [2] it was 0.0246 µM.
For “AAAAAACAUGAGGAUCACCCAUGUGAGGAUAUGAACGAAAAUAAAUAAAAAUAAAAGUUCAGAAGGCACAAAAA [66%, Wbt, 10]”, the “apparent KD of MS2 coat protein” value was 0.0479 µM in the data set on MS2 coat protein [1] and 0.0422 µM with MS2 coat protein [2].
With “AAAAAACAUGAGGAUCACCCAUGUGAGGAUAUGCGAAACAAAAAAAACAAAAACAAAAGCAGAAGGCACAAAAA [Amethyst 33]”, the “apparent KD of MS2 coat protein” value with MS2 coat protein [1] was 0.0257 µM; in the data set with MS2 coat protein [2], 0.025 µM.
For the sequence “AAAAAACAUGAGGAUCACCCAUGUGAGGAUAUGUACGAAAAUAAAUAAAAAUAAAAGUACAGAAGGCACAAAAA [66%, Wbt, 2]”, the “apparent KD of MS2 coat protein” value with MS2 coat protein [1] was 0.0412 µM; in the data set with MS2 coat protein [2], 0.0357 µM.
The matching figures for “AAAAAACAUGAGGAUCACCCAUGUGAGGAUAUGUACGAAAUAAAUAAAAAAUAAAAGUACAGAAGGCACAAAAA [Mat - Exclusion 1 - Eli mod - D5]”: 0.0324 µM and 0.0355 µM.
Turning to “AAAAAACAUGAGGAUCACCCAUGUUAGGAUAUGCUAUGGAAAAUAAAAAUAAAACAUAGCAGAAGGAACAAAAA [Denovo 2]”, the entries for the “apparent KD of MS2 coat protein” value in the data set on MS2 coat protein [1] and with MS2 coat protein [2] were 0.0369 µM and 0.0186 µM, respectively.
Taken in the same sequence, the figures for “AAAAAAGGAGGAUAUACGAACAUGUCGAAAGACGUGAAGGGACAUGAGGAUCACCCAUGUAGAAGGUCUAAAAA [Mat - Exclusion 2 - JL mod - D87]” were 0.0299 µM and 0.0307 µM.
With “AAAAAAGGAGGAUAUACGAACAUGUCGAAAGACGUGAAGGGACAUGAGGAUCACCCAUGUAGAAGGUUUAAAAA [Mat - Exclusion 2 - JL mod - D85]”, the entries for the “apparent KD of MS2 coat protein” value in the data set on MS2 coat protein [1] and with MS2 coat protein [2] were 0.0192 µM and 0.0359 µM, respectively.
Taken in the same sequence, the figures for “AAAAAAGGAGGAUAUACGUACAUGUCGAAAGACGUGAAGGGACAUGAGGAUCACCCAUGUAGAAGGCUUAAAAA [Mat - Exclusion 2 - JL mod - D70]” were 0.0229 µM and 0.0372 µM.
As for “AAAAACCUAGGAUAUACAUGAGGAUCACCCAUGUAAAGAAACAACAAGGGAAACACACGUAGAAGGAGGAAGAA [JR_Exc003_Sub1204]”, the “apparent KD of MS2 coat protein” value is 0.0748 µM in the data set on MS2 coat protein [1] and 0.0245 µM in the data set on MS2 coat protein [2].
Turning to “AAAAAGAGAGGAUAUACAUGAGGAUCACCCAUGUGAAAGACGAAAAAAAGUCUAAAAAGUAGAAGGCUCAAAAA [65%, Moding Exclusion3-cac2, 12]”, the entries for the “apparent KD of MS2 coat protein” value with MS2 coat protein [1] and in the data set with MS2 coat protein [2] were 0.0225 µM and 0.0171 µM, respectively.
Turning to “UUGCGGGCUUGAGGAUAUUGAGUACAUAUGUUUAACAUGAGGAUCACCCAUGUGGGUUGCGGUGUCGAGAAGGUGGCUUCCUGC [salish99_SSNG2_r04_814] (Eterna round: R96, puzzle: Same State NG 2)”, the entries for the “apparent KD of MS2 coat protein” value with MS2 coat protein [3] (input ligand: FMN 200 uM), in the data set with MS2 coat protein [3] (setting [4]) and in the data set with MS2 coat protein [3] (input ligand: none) were 0.0992 µM, 0.0767 µM and 0.0915 µM, respectively.
Taken in the same sequence, the figures for “UUGGUUGUCGUAGGAUAUGUAGGAUAUGCCUACAUGAGGAUCACCCAUGUUCGCAUGGCAGAAGGACAGAAGGACGAUGACCAU [pwkr ssNG2 2FMN + 1F5.19] (Eterna round: R96, puzzle: Same State NG 2)” were 0.013 µM, 0.0205 µM and 0.0502 µM.
For “UUGUGUUUGCGAGGAUAUCGUUUGUUGAAGUUACGAGAAGGCGCUCUCUUUACAUGAGGAUCACCCAUGUCUUUGAUGCAUGAU [JR_SSNG1_Sub072] (Eterna round: R96, puzzle: Same State NG 1)”, the “apparent KD of MS2 coat protein” value in the data set with MS2 coat protein [3] (input ligand: FMN 200 uM) is 0.0811 µM; with MS2 coat protein [3] (setting [4]), 0.0535 µM; in the data set on MS2 coat protein [3] (input ligand: none), 0.0751 µM.
As for “UUGUUACAUGAGGAUCACCCAUGUUGUUGUAGAUAAGGAUAUAUAGGAACGAGAGAAAUAAUAGAAGGUAUUAGAC [JR_SS1_Sub059] (puzzle: Same State 1)”, the “apparent KD of MS2 coat protein” value with MS2 coat protein [3] (setting [5]) came to 0.0286 µM.
Regarding “UUGUUUGGUAAAAUACAUGAGGAUCACCCAUGUUAUGGUGCAGAGGAUAUGCAUGUUUGAUUGUAGCAGAAGGCUGUUUGUUGU [JR_SSNG3_Sub035] (Eterna round: R96, puzzle: Same State NG 3)”, the “apparent KD of MS2 coat protein” value with MS2 coat protein [3] (input ligand: FMN 200 uM) stood at 0.0415 µM; in the data set on MS2 coat protein [3] (setting [4]), 0.0297 µM; in the data set on MS2 coat protein [3] (input ligand: none) it was 0.0425 µM.
For the sequence “UUUAGUUGCGGGCAGGAUAUGUAUUAAAAUACAUGAGGAUCACCCAUGUGAGGCCGAAAAGGCCUACAGAAGGGCCAAUCGCGAC [Laonerce - 22] (puzzle: Same State 2)”, the “apparent KD of MS2 coat protein” value was found to be 0.0197 µM with MS2 coat protein [3] (Eterna round: R95, input ligand: FMN 200 uM); 0.0494 µM with MS2 coat protein [3] (setting [5]); 0.063 µM in the data set on MS2 coat protein [3] (Eterna round: R95, input ligand: none).
As for “UUUAUACAUGAGGAUCACCCAUGUCAACAAAGUCGAGGAUAUGGGCAUAUUAUCUUAUUUCCAGAAGGCGAAUUCU [salish99_ss1_r3_090] (Eterna round: R96, puzzle: Same State 1)”, the “apparent KD of MS2 coat protein” value was found to be 0.101 µM with MS2 coat protein [3] (input ligand: FMN 200 uM), 0.305 µM with MS2 coat protein [3] (setting [4]) and 0.378 µM in the data set with MS2 coat protein [3] (input ligand: none).
As to “UUUAUACAUGAGGAUCACCCAUGUCAACAAAGUCGAGGAUAUGGGCAUAUUAUCUUAUUUCCAGAAGGCGAAUUCU [salish99_ss1_r3_090] (puzzle: Same State 1)”, the “apparent KD of MS2 coat protein” value in the data set with MS2 coat protein [3] (setting [5]) was determined as 0.158 µM.
Take “UUUCCAUAGAUAGGAUAUCAGUUUACAUGAGGAUCACCCAUGUUCUCUUUGGUUAUAAUUAUAUCUGAGAAGGAUCUUGAUGAA [JR_SSNG2_Sub002] (Eterna round: R96, puzzle: Same State NG 2)”: the “apparent KD of MS2 coat protein” value in the data set with MS2 coat protein [3] (setting [4]) amounted to 0.0204 µM.
On to “UUUCGGUGGCUGGAGGAUAUCCUGGUUGUUACAUGAGGAUCACCCAUGUGCCGCGCGGUGCGCUGGGAGAAGGCCGGCGGCCCUU (puzzle: Same State 2)”, for which the “apparent KD of MS2 coat protein” value in the data set on MS2 coat protein [3] (setting [5]) amounted to 0.0252 µM.
Regarding “UUUGGGUGGCUGGAGGAUAUCCUGGUUGUUACAUGAGGAUCACCCAUGUGCCGCGCGGUUCGCGAGGAGAAGGCUGGCGGCCGUU (Eterna round: R96, puzzle: Same State 2)”, the “apparent KD of MS2 coat protein” value with MS2 coat protein [3] (input ligand: FMN 200 uM) came to 0.0424 µM; in the data set on MS2 coat protein [3] (setting [4]), 0.0744 µM; with MS2 coat protein [3] (input ligand: none) it was 0.154 µM.
Consider “UUUGGGUGGCUGGAGGAUAUCCUGGUUGUUACAUGAGGAUCACCCAUGUGCCGCGCGGUUCGCGAGGAGAAGGCUGGCGGCCGUU (puzzle: Same State 2)”, for which the “apparent KD of MS2 coat protein” value in the data set on MS2 coat protein [3] (setting [5]) came to 0.0912 µM.
“UUUGGGUGGCUGGAGGAUAUUCGAGUGGUUACAUGAGGAUCACCCAUGUGUCGCGCGGUACGCGAGGAGAAGGCUGGCGGCCGUU (puzzle: Same State 2)”: the “apparent KD of MS2 coat protein” value in the data set on MS2 coat protein [3] (setting [5]) is 0.0534 µM.
On to “UUUUUGAUCCGAGGAUAUCCUUUUUUCUUACAUGAGGAUCACCCAUGUAAAGGGAUUGAGUUGUAGGAGAAGGCGGUUUUUUUU [JR_SSNG2_Sub060] (Eterna round: R96, puzzle: Same State NG 2)”, for which the “apparent KD of MS2 coat protein” value was found to be 0.0175 µM in the data set with MS2 coat protein [3] (input ligand: FMN 200 uM), 0.0324 µM in the data set on MS2 coat protein [3] (setting [4]) and 0.0323 µM in the data set with MS2 coat protein [3] (input ligand: none).

The values above are taken from the supplement of paper PMC9170038.
